Data taken from the nanobody polyreactivity screen of Harvey et al. (2022).

Assay: yeast display, Sf9 membrane polyspecificity reagent, FACS + sequencing; frameworks hold sequencing errors
Method in brief: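 Galactose-induced (36–48 hours) yeast carrying a synthetic nanobody display library were exposed to 10% biotinylated, detergent-solubilized Sf9 membrane reagent at 4 °C for 1 hour. FACS followed streptavidin microbead enrichment, using low and high (top ~1%) gates for expression (anti-HA) and reagent binding (streptavidin). Colony PCR, MiSeq 2 × 250 sequencing and CDR-length filtering followed. Labels for polyreactivity reflect the gate of origin.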

QDQLVESGGGLVQAGGCLRLSCAASGSIFYIYGRGWYRQEPGKERELVAAISRSGGRTYYADSVKGRFTISRDTANNTVYLQMNSLKPEDTAVYYCAARDHYSTGGMNYWGQGTQVTVSS
polyreactivity (PSR sort gate): high polyreactivity

QVQLVESGGGLVQAGGSLRLRCAASGLTFAYNTMGWYRQAPGKEREFVASISSSGGNTYYADSVKGRFTISRDNAKNTVYLQMNSLKPEDTAVYYCAAKKKYHYVASYKRFEYWGQGTQVTVSS
polyreactivity (PSR sort gate): low polyreactivity

QVQLVESCAGLVQAGGSLRLTCADSGSIFDFNAMGWYRQVPGKEREWVAAITSGGSTNYADSVKGRFTNSRDNAKNTVYLQMNSLKPEDTAVYYCAARPARGASQGGYVRPWWYDSWGQGTQVTVSS
polyreactivity (PSR sort gate): low polyreactivity

QVQLVESGGGLVQAGGSLRLSCAASGSTFYYYAMGWYRQAPGKERELVAAISVRAGITYYADSVKGRFTISRDNAKNTVYLQMNSLKPEDTAVYYCAKDHWTTSYDEGDYWGQGTQVTVSS
polyreactivity (PSR sort gate): low polyreactivity

QVQLVESGGGLVQAGGSLRLSCAASGSIFGWYAMGWYRQAPGKERELVATISSGGSTSYADSVKGRFTISRDNAKNTVYLQMKSLKPEDTAVYYCAADIYPDWIYLLYGYWGQGTQVTVSS
polyreactivity (PSR sort gate): low polyreactivity

QVQLVESGGGLVQAGGSLRLSCAASGSILGTYAMGWYRQAPGKVRELVAAISSSGRTSYADSVKGRFTISRDNAKNTGYLQMNSLKPEDTAVYYCNASNYIVLINDPYAAPWLYDYWGQGTQVTVSS
polyreactivity (PSR sort gate): low polyreactivity

QVQLVESGGGLVQAGGSLRLSCAASGSIFFYYAMGWYRQAPGKDRELVAAITSSGDSTYYADSVKGRFTISRDNAKNTVYLQMNSLKPEDTAVYYCAALYIGYTGYYYWGQGTQVTVSS
polyreactivity (PSR sort gate): low polyreactivity

QVLLVESGGGLVQAGGSLRLSCAASGRTFVYYTMGWDRQAPGKERELVAAINWRGTSTYYADSVKGRFTISRDNAKNTVYLQMNSLKPEDTAVYYCYAERNAGFDYWGQGTQVTVSS
polyreactivity (PSR sort gate): high polyreactivity

QVQLVESGGGLVQAGGSLRLSCAASGFIFYNYAMGWYRQAPGKERELVAAITGGGSTNYADSVKGRLTISRDNPKNTVYLQMNSLKPEDTAVYYCAAEEGPPWSRYDYWGQGTQVTVSS
polyreactivity (PSR sort gate): low polyreactivity

QVQIEESGGGLVQAGRSHRLSCAASGSTFGSYAMRWYRQAPGKERELVAAISASGGSTYYADSVKGRFTISRDNAKHTVYLQMNSLKPEDTAVFYCATVYYSARYNYWGQGTQVTVSS
polyreactivity (PSR sort gate): high polyreactivity

QVQLVESGAGLVQAGGSLRLSCAASGIISYRNGMGWYRQAPGKERELVASISKRADSTYYADSVKGGFTLSRDNAKNTVYLQMNSLKPEDTAVYYCAANFRDWHRYYPAGYLRRGYWGQGTQVTVSS
polyreactivity (PSR sort gate): high polyreactivity

QVQHEESGGGLVQAGGSLRLSCAASGSIFSDYALGWYRPAPGKERELVAAITINGGSTYYADSVKGRFTISRDNAKITVYLQLNSLKPEDTAVEYCNAGWGRLYDYWGQGTQVTVSS
polyreactivity (PSR sort gate): low polyreactivity

QVQLVESGGGLVQAGGSLRLSCAASGRIFQPYAMGWYRPAPGKERELVAVITSGGSTNYADSVKGRFTISRDNAKNTVYLQMNSLKPEDTAVYYCNAVRTVNDYHYDYWGQGTQVTVSS
polyreactivity (PSR sort gate): high polyreactivity

QVQLVESGGGLVQARGSLRLSCAASGIIFLVNDMGWYRQAPGKVRELVAAITYSGDGTFYADSVKGRFTISRDNAKNTVYLQMNSLKPEDTAVYYCAADLPESPESYYHTDDYWGQGTQGTVSS
polyreactivity (PSR sort gate): low polyreactivity

QVQLVESGGGLVPAGGSLRLSCAGSGFIFYKYAMGWYRQAPGKERELVAAITRGGSTNYADSVKGRFTSSRDKAKNTVYLQMNSLKPEDTAVYYCAAGNRYGVRQLYQIVTRYYWGQGTQVTVSS
polyreactivity (PSR sort gate): high polyreactivity

QVQLVESGGGLVQAGGSLRLSCAASGNIFGYYAMGWYRQAPGKERELVAAITTTGGSTYYADSVKGRFTISRDNAKNTVYLQMNSLKPEDTAVYYCAAETGYWYYYWGQGTLVTVSS
polyreactivity (PSR sort gate): high polyreactivity

QVQLHESGGGLVQAGGGLRLSCAASGSISSTGFMGWYRQAPGKEREPVAAIAPGTTTYYADSVKGRFTISRDNAINTVYLQMNSLRPEDTAVYYCAVFTDNRVAFLYWGQGTQVTVSS
polyreactivity (PSR sort gate): low polyreactivity

QVQLVESGGGLVQAGGSLRLSCAASGSIISGYAMGWYRQAPGQERELVAAISRSGGRTYYADSVKGRFTISRDNAKNTVYLQMNSLKPEETAVYYCAAKIYIPRGYDYWGQGTQVTVSS
polyreactivity (PSR sort gate): high polyreactivity

QVQLVESGGGLVQAGGSLRLSCAASGFTFSSYAMGWSRQAPGKERELVAAISTRGGSTYYADSVKGRFTISRDNAKNTVYLQMNSLKPEDTAVYYCATGGRGGRRYEYWGQGTQVTVSS
polyreactivity (PSR sort gate): low polyreactivity

QDLLVDSGGGLLQAGGSLRLSCAASGSIFYTNTMGWYRHAPGKERALVAAISYSDSTTYYADSVKGRFTISRDNAKNSVYLQMNSLKPEDTAVYYCAAQQFYTYYQTYDYWGQGTQVTVSS
polyreactivity (PSR sort gate): high polyreactivity

QVQLVESGGGLVQAGGSLRLSCAASGRIFQYNTMGWYRQAPGKERELVARISWSGGSTRYADSVKGRFTISRDNAKNTVDLQMNSLKPEETEVYYCAVQEAYRYAHAYYYWGQGTQVTVSS
polyreactivity (PSR sort gate): high polyreactivity

QVQLVESGGGLVQAGGSLRLSCAASGFTFWTYAMGWYRPAPGKERELVAAIDSGVSTYYADSVKGRFTISRDNAKNTVYLQMNSLKPEDTAVYYCNAGPSVTSGYDYDYWGQGTQVTVSS
polyreactivity (PSR sort gate): low polyreactivity

QVQLVESGGGLVQAGGSLRLSCAASGRTFRYYAMGWYRQAPGKERELVAAINRGGSTYYADSVKGRFTISRDNAKNTVYLQMNSLKPEDTAVYYCNTARGSKDPPHYYWGQGSQVTVSS
polyreactivity (PSR sort gate): high polyreactivity

QVQLVESGGGLVQAGGSLRLSCAASGRTFGPYAMGWYRQAPGKERELVAVISKSGTRTYYADSVKGRFTISRDNAKNTVYLQMNSLKPEETAVYYCAARSPYSYRYDYWGQGTQVTVSS
polyreactivity (PSR sort gate): high polyreactivity

QVQLVESGGGLVQARGSLRLSCASSGRTFYTYAMGWYRQAPGKERELVAAIRRVGSTNYADSVKGRFTISRDNAKNTGYLQMNSLKPEDTAVYYCAVRLVWPWQGYDYWGQGTQVTVSS
polyreactivity (PSR sort gate): low polyreactivity

QVQLVESGGGLVQAGGSLRLSCSASGSIFAYYAMGWYRQAPGKERELVAAISKSAGSTYYADSVKGRFTISRDNAKNTVYLQMNSLKPEDTAVYYCAAVVLGRRLGFRGDYNYWGQGTQVTVSS
polyreactivity (PSR sort gate): high polyreactivity

QVQLVESGGGLVQAGGSLRLSCAASGLIFRTNAMGGYRQAPGKERELVAAISWSTGTTYYADSVKGRFTISRDIAKNTVYFQMNSVNPEDTAVSYCARTLRWTYRYGYWGQGTQVTVSS
polyreactivity (PSR sort gate): high polyreactivity

QVQLVESGGGLVQAGGSLRLSCAASGRIFWSYAMGWYRQAPGKEREFVAVITWSGGSTYYADSVKGRFTISRDNAKNTVYLQMNSLKPEDTAVYYCAAGQWWYQVRFDYWGQGTQVTVSS
polyreactivity (PSR sort gate): low polyreactivity

QVQLVESGGGLVQAGGSLRISCAASGSTIQQYAMGRYRQAPGKEREFVAAISWRGGRTYYADSVKGRFTISRDNAKNTVYLQMNSLKPEDTAVYYCAVDPSIYRLSAYYYDYWGQGTQVTVSS
polyreactivity (PSR sort gate): low polyreactivity

QVQLVESGGGLVQAGGSLRLSCAASGSIFAVNAMGWYRQAPGKERELVASITSGGSTNYADSVKGRFTISRDNAKNTVYLQMNSLKPEDTAVYYCNADRVRAVSRYDYWGQGTQLTVSS
polyreactivity (PSR sort gate): low polyreactivity

QVQLVESGGGLVQAGGSLRLSCAASGSTFVRNDMGWYRQAPGKERELVAAINGDGRTYYADSVKGRFTISRDNAKNTVYLQMNSLKPEDTAVYYCAADWKSSRSYSYEMDYWGQGTQVTVSS
polyreactivity (PSR sort gate): low polyreactivity

QVQLVESGGGLDQARGSLRLSCAASGLTFHRYAMGWYRQANGKERELVAAINYSGGRTYYADSVKGRFTISRDNAKNTVYLQMNSLKPEDTAVYYCNAVRYQKIFDYWGQGTQVTVSS
polyreactivity (PSR sort gate): high polyreactivity

QVQLVESGGGLVQAGGSLRLSCAASGRIFDIYAMGWYRQAPGKERELVAGITSVGSTNYADSVKGRFTISRDNAKNTVYLQMNSLKPEDTAFYYCAADTSVHSEVDYWGQGTQGTVSS
polyreactivity (PSR sort gate): low polyreactivity

QVQLVQAGGGLVQAGGILRLSCAASGFTFQEYAMGWYRQAPGKAREFVAAITYSGGSTYADSVKGRFTISRDNAKNTVYLQMNSLKPEDTAVYYCNAQVYYSVRGYPYGYYRNDYWGQGTQVTVSS
polyreactivity (PSR sort gate): low polyreactivity

QVQLVESGGGLVQAGGSLRLSCAASGSTFQVNAMGWYRQAPGQDRELVAAITYRTGRTYYADSVKGRCTISRDNAKNTGYLQMNSLKPEDTAVYYCAATAHSYYGVGMGYWGQGTQVTVSS
polyreactivity (PSR sort gate): high polyreactivity

QVQLVESGGGLVQAGGSLRLSSAASGSIFYQYAMGWYRQAPGKERQLVAAISRSGGSTYYAESVKGRFTISRDNAKNTVYLQMNSLIPEDTAVYYCATDIYSRWAGYKRSQYDYWGQGTQVTVSS
polyreactivity (PSR sort gate): high polyreactivity

QVQLVESGGGLFQAGGSLRLSCAASGFIFYDNAIGWYRQAPGKERELVASISVSGGSTYYADSVKGRFTISRDKAKNTVYLHMNSLKAEDTAVYYCAASYRDGHIRHDYWGQGTQVTVSS
polyreactivity (PSR sort gate): low polyreactivity

QVQLVESGGGLVQAGGSLRLSCAASGLTFSRYAMGWYRQAPGKERELVATIRSAGSTYYADSVKGRFTISRDNAKNTVYLQMNTLKPEDTAVYYCATAPYYHVKQRYYYWGQGTQVTVSS
polyreactivity (PSR sort gate): high polyreactivity

QVQLVESGGALVQAGGSLRLSCAASGSTFAYNAMGWYRQAPVKERELVAAITWNGGDTYYADSVKGRFTISRDNAKNTVYLQMNSLKPEDTAVYYCAAEDTYYRDSDYWGQGTQVTVSS
polyreactivity (PSR sort gate): low polyreactivity

QVQLVESGGGLVQAGGSLRLSCAASGFNFTLNTMGWYRQAPGKERELVAAINSGDSTYADSVKGRFTISRDNAKNTVYLQMNSLKPEDTAVYYCNADPDWWYPFNYWGQGTQVTVSS
polyreactivity (PSR sort gate): low polyreactivity

QVQLVESGGGLVQAGGSLRLSCAASGRTFDRYAMGWYRQAPGKERELVAAITWSGGRTYYADSVKGRFTISRDNAKNTVYLQMNSLKPEDTAVYYCAADNSYRGYHSPYDYWGQGTQVTVSS
polyreactivity (PSR sort gate): low polyreactivity

QVQLVESGGGLVQAGGSLRLSCAASGSIFTSYAMVWYRQAPGKERELVAAITSGGSTYYAHSVKGRFTISRDNAKKTVYLLMNSLKPEDTAVYYCAALQVRTSKLHMGYWGQGTQVTVSS
polyreactivity (PSR sort gate): low polyreactivity

QVQLVESGGGLVQAGGSLRLSCAASGSTFSRNAMGWYRQAPGKERELVAAITSSGGSTYYADSVKGRFTISRDNAKNTVYLQMNSLKPEDTAVYYCAAPRRRHFDYWGQGTQVTVSS
polyreactivity (PSR sort gate): high polyreactivity
